Assay results taken from patent US20230192799A1 (BIOMARIN PHARMACEUTICAL, published 2023).
Bridge positions count the residues as written; N and C are the ends. Ends that are not written are not given here.

Molecular target: natriuretic peptide receptor-B (NPR-B) on the cells of the cGMP stimulation assay of Example 2
Test: cell-based or functional assay

First: Ac-PGQEHPNARKYKGANKKGLSKGCFGLKLDRIGSMSGLGC-NH2 (disulfide 23-39 (inferred)) [CNP-5]
Second: Ac-PGQEHPQARRYRGAQRRGLSRGCFGLKLDRIGSMSGLGC-NH2 (disulfide 23-39 (inferred)) [CNP-9]
The “EC50, T0 (cGMP stimulation assay)” value of the first is 3.3-fold higher: 3 nM for the first, 0.9 nM for the second.

First: Ac-PGQEHPNARRYRGANRRGLSRGCFGLKLDRIGSMSGLGC-NH2 (disulfide 23-39 (inferred)) [CNP-7]
Second: Ac-PGQEHPQARRYRGAQRRGLSRGCFGLKLDRIGSMSGLGC-OH (disulfide 23-39 (inferred)) [CNP-8]
The “EC50, T0 (cGMP stimulation assay)” value of the first is 10-fold higher: 2.1 nM for the first, 0.2 nM for the second.

Going from PGQEHPNARKYKGANKKGLSKGCFGLKLDRIGSMSGLGC (disulfide 23-39 (inferred)) [Pro-Gly CNP-37] to Ac-PGQEHPNARRYRGANRRGLSRGCFGLKLDRIGSMSGLGC-OH (disulfide 23-39 (inferred)) [CNP-6], the “EC50, T0 (cGMP stimulation assay)” value falls from 1.7 nM to 0.4 nM (4.2-fold).
